Measured values reported in patent US20230407373A1 (priority 2020, published 2023).
Where two headings read alike, the source gives them in different places.

Assays:
Type in all cases: binding
gRNA of HCoV-OC43 = system: gRNA of HCoV-OC43
SARS-CoV-2 gRNA = conditions: for target (unweighted spectral count of the protein in the RNP capture): LC-MS/MS, Probe I sample (first 199 lines of Table 2)
HCoV-OC43 gRNA and sgRNA = conditions: for target (unweighted spectral count, OC43 Probe II capture) / target (unweighted spectral count): tested against no-probe control; for target (unweighted spectral count, OC43 Probe II capture): FDR<10%; for target (unweighted spectral count): OC43 Probe II, 24 hpi (type n_24_v), infected cells

B1: POLDIP3: host protein, UniProt Q9BY77 (protein, UniProt Q9BY77 2-421, looked up)
Polymerase delta-interacting …: ADISLDELIRKRGAAAKGRLNARPGVGGVRSRVGIQQGLLSQSTRTATFQQRFDARQKIGLSDARLKLGVKDAREKLLQKDARFRIKGKVQDAREMLNSRKQQTTVPQKPRQVADAREKISLKRSSPAAFINPPIGTVTPALKLTKTIQVPQQKAMAPLHPHPAGMRINVVNNHQAKQNLYDLDEDDDGIASVPTKQMKFAASGGFLHHMAGLSSSKLSMSKALPLTKVVQNDAYTAPALPSSIRTKALTNMSRTLVNKEEPPKELPAAEPVLSPLEGTKMTVNNLHPRVTEEDIVELFCVCGALKRARLVHPGVAEVVFVKKDDAITAYKKYNNRCLDGQPMKCNLHMNGNVITSDQPILLRLSDSPSMKKESELPRRVNSASSSNPPAEVDPDTILKALFKSSGASVTTQPTEFKIKL
target (spectral count) (gRNA of HCoV-OC43; type g_36_m, HCoV-OC43-infected HCT-8 cells, 36 hpi, Probe I): 7
background (spectral count) (gRNA of HCoV-OC43; type g_36_m, uninfected-probe control, 36 hpi, Probe I): 1
target (spectral count, OC43 Probe I RNP capture) (gRNA of HCoV-OC43; type n_48_v: 48 hours post-infection, infected cells, OC43 Probe I, unweighted spectral count): 7
background (spectral count, no-probe control) (gRNA of HCoV-OC43; type n_48_v: 48 hours post-infection, no-probe control on infected cells): 1
target (unweighted spectral count of the protein in the RNP capture) (SARS-CoV-2 gRNA; […]): 5

B2: DDX3X (protein, UniProt O00571 2-662, looked up)
ATP-dependent RNA helicase …: SHVAVENALGLDQQFAGLDLNSSDNQSGGSTASKGRYIPPHLRNREATKGFYDKDSSGWSSSKDKDAYSSFGSRSDSRGKSSFFSDRGSGSRGRFDDRGRSDYDGIGSRGDRSGFGKFERGGNSRWCDKSDEDDWSKPLPPSERLEQELFSGGNTGINFEKYDDIPVEATGNNCPPHIESFSDVEMGEIIMGNIELTRYTRPTPVQKHAIPIIKEKRDLMACAQTGSGKTAAFLLPILSQIYSDGPGEALRAMKENGRYGRRKQYPISLVLAPTRELAVQIYEEARKFSYRSRVRPCVVYGGADIGQQIRDLERGCHLLVATPGRLVDMMERGKIGLDFCKYLVLDEADRMLDMGFEPQIRRIVEQDTMPPKGVRHTMMFSATFPKEIQMLARDFLDEYIFLAVGRVGSTSENITQKVVWVEESDKRSFLLDLLNATGKDSLTLVFVETKKGADSLEDFLYHEGYACTSIHGDRSQRDREEALHQFRSGKSPILVATAVAARGLDISNVKHVINFDLPSDIEEYVHRIGRTGRVGNLGLATSFFNERNINITKDLLDLLVEAKQEVPSWLENMAYEHHYKGSSRGRSKSSRFSGGFGARDYRQSSGASSSSFSSSRASSSRSGGGGHGSSRGFGGGGYGGFYNSDGYGGNYNSQGVDWWGN
target (unweighted spectral count, OC43 Probe II capture) (HCoV-OC43 gRNA and sgRNA; 36 hpi, type n_36_v): 7
target (unweighted spectral count) (HCoV-OC43 gRNA and sgRNA): 7
target (unweighted spectral count, OC43 Probe II) (HCoV-OC43 gRNA and sgRNA; type n_48_v, 48 hpi, OC43 Probe II capture on infected cells): 11
background (unweighted spectral count, no-probe control) (HCoV-OC43 gRNA and sgRNA; type n_48_v, 48 hpi, no-probe control on infected cells): 2
target (unweighted spectral count of the protein in the RNP capture) (SARS-CoV-2 gRNA; […]): 17

B3: CKAP4: host protein, UniProt Q07065 (protein, UniProt Q07065 1-602, looked up)
Cytoskeleton-associated …: MPSAKQRGSKGGHGAASPSEKGAHPSGGADDVAKKPPPAPQQPPPPPAPHPQQHPQQHPQNQAHGKGGHRGGGGGGGKSSSSSSASAAAAAAAASSSASCSRRLGRALNFLFYLALVAAAAFSGWCVHHVLEEVQQVRRSHQDFSRQREELGQGLQGVEQKVQSLQATFGTFESILRSSQHKQDLTEKAVKQGESEVSRISEVLQKLQNEILKDLSDGIHVVKDARERDFTSLENTVEERLTELTKSINDNIAIFTEVQKRSQKEINDMKAKVASLEESEGNKQDLKALKEAVKEIQTSAKSREWDMEALRSTLQTMESDIYTEVRELVSLKQEQQAFKEAADTERLALQALTEKLLRSEESVSRLPEEIRRLEEELRQLKSDSHGPKEDGGFRHSEAFEALQQKSQGLDSRLQHVEDGVLSMQVASARQTESLESLLSKSQEHEQRLAALQGRLEGLGSSEADQDGLASTVRSLGETQLVLYGDVEELKRSVGELPSTVESLQKVQEQVHTLLSQDQAQAARLPPQDFLDRLSSLDNLKASVSQVEADLKMLRTAVDSLVAYSVKIETNENNLESAKGLLDDLRNDLDRLFVKVEKIHEKV
target (unweighted spectral count, OC43 Probe II capture) (HCoV-OC43 gRNA and sgRNA; 36 hpi, type n_36_v): 12
target (unweighted spectral count) (HCoV-OC43 gRNA and sgRNA): 8
target (spectral count) (HCoV-OC43 gRNA and sgRNA; type s_36_m, HCoV-OC43-infected HCT-8 cells, 36 hpi, Probe II): 12
background (spectral count) (HCoV-OC43 gRNA and sgRNA; type s_36_m, uninfected-probe control, 36 hpi, Probe II): 1
target (unweighted spectral count in RNP capture) (SARS-CoV-2 gRNA; Probe I capture, […], LC-MS/MS LFQ): 5
background (unweighted spectral count in control) (SARS-CoV-2 gRNA; no-probe control pull-down, used as background for Probe I): 1

B4: CON_P35908 (protein, UniProt P35908 1-639, looked up)
Keratin, type II cytoskeletal …: MSCQISCKSRGRGGGGGGFRGFSSGSAVVSGGSRRSTSSFSCLSRHGGGGGGFGGGGFGSRSLVGLGGTKSISISVAGGGGGFGAAGGFGGRGGGFGGGSSFGGGSGFSGGGFGGGGFGGGRFGGFGGPGGVGGLGGPGGFGPGGYPGGIHEVSVNQSLLQPLNVKVDPEIQNVKAQEREQIKTLNNKFASFIDKVRFLEQQNQVLQTKWELLQQMNVGTRPINLEPIFQGYIDSLKRYLDGLTAERTSQNSELNNMQDLVEDYKKKYEDEINKRTAAENDFVTLKKDVDNAYMIKVELQSKVDLLNQEIEFLKVLYDAEISQIHQSVTDTNVILSMDNSRNLDLDSIIAEVKAQYEEIAQRSKEEAEALYHSKYEELQVTVGRHGDSLKEIKIEISELNRVIQRLQGEIAHVKKQCKNVQDAIADAEQRGEHALKDARNKLNDLEEALQQAKEDLARLLRDYQELMNVKLALDVEIATYRKLLEGEECRMSGDLSSNVTVSVTSSTISSNVASKAAFGGSGGRGSSSGGGYSSGSSSYGSGGRQSGSRGGSGGGGSISGGGYGSGGGSGGRYGSGGGSKGGSISGGGYGSGGGKHSSGGGSRGGSSSGGGYGSGGGGSSSVKGSSGEAFGSSVTFSFR
target (unweighted spectral count, OC43 Probe II capture) (HCoV-OC43 gRNA and sgRNA; 24 hpi, type n_24_v): 4
target (unweighted spectral count of the protein in the RNP capture) (SARS-CoV-2 gRNA; […]): 6

B5: FAM1204 (protein, UniProt Q9NZB2 1-1118, looked up)
Constitutive coactivator of …: MGVQGFQDYIEKHCPSAVVPVELQKLARGSLVGGGRQRPPQTPLRLLVDADNCLHRLYGGFYTDWVSGGQWNHMLGYLAALAKACFGGNIELFVFFNGALEKARLHEWVKRQGNERQTAQQIVSHVQNKGTPPPKVWFLPPVCMAHCIRLALIRFHVKVAQSIEDHHQEVIGFCRENGFHGLVAYDSDYALCNIPYYFSAHALKLSRNGKSLTTSQYLMHEVAKQLDLNPNRFPIFAALLGNHILPDEDLASFHWSLLGPEHPLASLKVRAHQLVLPPCDVVIKAVADYVRNIQDTSDLDAIAKDVFQHSQSRTDDKVIRFKRAIGYYSATSKPMSFHPPHYLAARPGPFGMPGMVPPHVPPQMLNIPQTSLQAKPVAPQVPSPGGAPGQGPYPYSLSEPAPLTLDTSGKNLTEQNSYSNIPHEGKHTPLYERSSPINPAQSGSPNHVDSAYFPGSSTSSSSDNDEGSGGATNHISGNKIGWEKTGSHSEPQARGDPGDQTKAEGSSTASSGSQLAEGKGSQMGTVQPIPCLLSMPTRNHMDITTPPLPPVAPEVLRVAEHRHKKGLMYPYIFHVLTKGEIKIAVSIEDEANKDLPPAALLYRPVRQYVYGVLFSLAESRKKTERLAFRKNRLPPEFSPVIIKEWAAYKGKSPQTPELVEALAFREWTCPNLKRLWLGKAVEDKNRRMRAFLACMRSDTPAMLNPANVPTHLMVLCCVLRYMVQWPGARILRRQELDAFLAQALSPKLYEPDQLQELKIENLDPRGIQLSALFMSGVDMALFANDACGQPIPWEHCCPWMYFDGKLFQSKLLKASREKTPLIDLCDGQADQAAKVEKMRQSVLEGLSFSRQSHTLPFPPPPALPFYPASAYPRHFGPVPPSQGRGRGFAGVCGFGGPYGETVATGPYRAFRVAAASGHCGAFSGSDSSRTSKSQGGVQPIPSQGGKLEIAGTVVGHWAGSRRGRGGRGPFPLQVVSVGGPARGRPRGVISTPVIRTFGRGGRYYGRGYKNQAAIQGRPPYAASAEEVAKELKSKSGESKSSAMSSDGSLAENGVMAEEKPAPQMNGSTGDARAPSHSESALNNDSKTCNTNPHLNALSTDSACRREAALEAAVLNKEE
target (unweighted spectral count of the protein in the RNP capture) (SARS-CoV-2 gRNA; […]): 37

B6: MARS2 (protein, UniProt Q96GW9 30-593, looked up)
Methionine--tRNA ligase, …: SSGSLSAGDDACDVRAYFTTPIFYVNAAPHIGHLYSALLADALCRHRRLRGPSTAATRFSTGTDEHGLKIQQAAATAGLAPTELCDRVSEQFQQLFQEAGISCTDFIRTTEARHRVAVQHFWGVLKSRGLLYKGVYEGWYCASDECFLPEAKVTQQPGPSGDSFPVSLESGHPVSWTKEENYIFRLSQFRKPLQRWLRGNPQAITPEPFHHVVLQWLDEELPDLSVSRRSSHLHWGIPVPGDDSQTIYVWLDALVNYLTVIGYPNAEFKSWWPATSHIIGKDILKFHAIYWPAFLLGAGMSPPQRICVHSHWTVCGQKMSKSLGNVVDPRTCLNRYTVDGFRYFLLRQGVPNWDCDYYDEKVVKLLNSELADALGGLLNRCTAKRINPSETYPAFCTTCFPSEPGLVGPSVRAQAEDYALVSAVATLPKQVADHYDNFRIYKALEAVSSCVRQTNGFVQRHAPWKLNWESPVDAPWLGTVLHVALECLRVFGTLLQPVTPSLADKLLSRLGVSASERSLGELYFLPRFYGHPCPFEGRRLGPETGLLFPRLDQSRTWLVKAHRT
target (unweighted spectral count of the protein in the RNP capture) (SARS-CoV-2 gRNA; […]): 6

B7: GRSF1 (protein, UniProt Q12849 118-480, looked up)
G-rich sequence factor 1: SQESKTTYLEDLPPPPEYELAPSKLEEEVDDVFLIRAQGLPWSCTMEDVLNFFSDCRIRNGENGIHFLLNRDGKRRGDALIEMESEQDVQKALEKHRMYMGQRYVEVYEINNEDVDALMKSLQVKSSPVVNDGVVRLRGLPYSCNEKDIVDFFAGLNIVDITFVMDYRGRRKTGEAYVQFEEPEMANQALLKHREEIGNRYIEIFPSRRNEVRTHVGSYKGKKIASFPTAKYITEPEMVFEEHEVNEDIQPMTAFESEKEIELPKEVPEKLPEAADFGTTSSLHFVHMRGLPFQANAQDIINFFAPLKPVRITMEYSSSGKATGEADVHFETHEDAVAAMLKDRSHVHHRYIELFLNSCPKGK
target (unweighted spectral count, OC43 Probe II capture) (HCoV-OC43 gRNA and sgRNA; 24 hpi, type n_24_v): 4
target (unweighted spectral count of the protein in the RNP capture) (SARS-CoV-2 gRNA; […]): 14
